Test results as given in US12559863B2, “Macrocyclic modulators of disease associated protein misfolding and aggregation” (RESQ BIOTECH, priority 2017, dated 2026).

Biological target: T1, Aβ42-GFP (Homo sapiens, UniProt P05067)
T1 construct: a chimeric fusion of the human Aβ(1-42) peptide (Aβ42) with GFP; expressed in transfected cells; host or cells: E. coli BL21(DE3)
Assay: High-throughput sequencing of pSICLOPPS vectors isolated after bacterial sorting for enhanced Aβ42-GFP fluorescence
Details: for Reads/Total TXXXR reads (%): relative to total TXXXR reads; for Reads/Total pentapeptide reads (%): relative to total pentapeptide reads
Procedure, shortened: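 E. coli BL21(DE3) expressing Aβ42-GFP from the T7 promoter was co-transformed with cyclic peptide libraries (0.002% L-arabinose, 0.1 mM IPTG at OD600 ~0.5, 37° C). High-fluorescence cells were sorted over repeated rounds. Plasmid peptide-encoding regions were then sequenced by Ion Torrent, discarding sequences with stop codons.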

[1] = after the second round of bacterial sorting
[2] = after the second round of bacterial sorting, relative to total peptide reads
[3] = high-throughput sequencing of isolated pSICLOPPS-NuX1X2X3-X5 vectors after the second round of bacterial sorting for enhanced Aβ42-GFP fluorescence, selected cyclo-TXXXR pentapeptides
[4] = Table 4, hexapeptides, after second round of sorting
[5] = after the second round of bacterial sorting for enhanced Aβ42-GFP fluorescence
[6] = after the second round of bacterial sorting for enhanced Aβ42-GFP fluorescence, relative to total peptide reads
[7] = pSICLOPPS-NuX1X2X3-X5 vectors after the second round of bacterial sorting for enhanced Aβ42-GFP fluorescence

Row | Substance | Reads/Total TXXXR reads (%) [1] | Reads/Total pentapeptide reads (%) [1] | Reads/Total peptide reads (%) [2] | Number of reads [3] | also measured
1 | AβC5-218 (TVLHR; cyclic) | 0.026% | 0.012% | 0.011% | 497 | –
2 | AβC5-7 (TTLHR; cyclic pentapeptide) | 7.046% | 3.301% | 2.958% | 134,018 | –
3 | TKEYFD [AβC6-21] | – | – | – | – | Reads/Total hexapeptide reads (%) (Table 4): 0.272%; Reads/Total peptide reads (%) (Table 4): 0.027%; Number of reads [4]: 1,231
4 | AβC5-394 (TTVSR; head-to-tail cyclic) | – | – | – | – | Reads/Total TXXXR reads (%) [5]: 0.005%; Reads/Total pentapeptide reads (%) [5]: 0.002%; Reads/Total peptide reads (%) [6]: 0.002%; Number of reads [7]: 86
5 | AβC5-188 (TGMRR; cyclic) | 0.040% | 0.019% | 0.017% | 768 | –
6 | AβC5-320 (TTVER; head-to-tail cyclic) | 0.008% | 0.004% | 0.003% | 150 | –
7 | TLEFFD [AβC6-4] | – | – | – | – | Reads/Total hexapeptide reads (%) (Table 4): 5.978%; Reads/Total peptide reads (%) (Table 4): 0.597%; Number of reads [4]: 27,057
8 | TLLIRW [AβC6-8] | – | – | – | – | Reads/Total hexapeptide reads (%) (Table 4): 2.902%; Reads/Total peptide reads (%) (Table 4): 0.290%; Number of reads [4]: 13,135
9 | AβC5-411 (TTQRR; cyclic pentapeptide) | – | – | – | – | Reads/Total TXXXR reads (%) [5]: 0.004%; Reads/Total pentapeptide reads (%) [5]: 0.002%; Reads/Total peptide reads (%) [6]: 0.002%; Number of reads [7]: 75
10 | AβC5-479 (TTTVR; cyclic pentapeptide) | – | – | – | – | Reads/Total TXXXR reads (%) [5]: 0.003%; Reads/Total pentapeptide reads (%) [5]: 0.001%; Reads/Total peptide reads (%) [6]: 0.001%; Number of reads [7]: 50
11 | AβC5-30 (TSTAR; cyclic) | 1.444% | 0.676% | 0.606% | 27,456 | –
12 | TSVEYE [AβC6-41] | – | – | – | – | Reads/Total hexapeptide reads (%) (Table 4): 0.068%; Reads/Total peptide reads (%) (Table 4): 0.007%; Number of reads [4]: 307
13 | AβC5-359 (TAMWR; head-to-tail cyclic) | 0.006% | 0.003% | 0.002% | 110 | –
14 | AβC5-275 (TAHVR; cyclic) | 0.013% | 0.006% | 0.005% | 249 | –
15 | AβC5-22 (TVLWR; cyclic) | 1.883% | 0.882% | 0.791% | 35,820 | –
16 | AβC5-89 (TATDR; cyclic) | 0.420% | 0.197% | 0.176% | 7,984 | –
17 | AβC5-399 (TAFAR; head-to-tail cyclic) | – | – | – | – | Reads/Total TXXXR reads (%) [5]: 0.004%; Reads/Total pentapeptide reads (%) [5]: 0.002%; Reads/Total peptide reads (%) [6]: 0.002%; Number of reads [7]: 82
18 | AβC5-450 (TRDVR; cyclic pentapeptide) | – | – | – | – | Reads/Total TXXXR reads (%) [5]: 0.003%; Reads/Total pentapeptide reads (%) [5]: 0.001%; Reads/Total peptide reads (%) [6]: 0.001%; Number of reads [7]: 58
19 | AβC5-244 (TTRVR; cyclic) | 0.019% | 0.009% | 0.008% | 366 | –
20 | AβC5-378 (TTTGR; head-to-tail cyclic) | 0.005% | 0.002% | 0.002% | 96 | –

Row | Substance | Reads/Total TXXXR reads (%) [1] | Reads/Total pentapeptide reads (%) [1] | Reads/Total peptide reads (%) [2] | Number of reads [3] | also measured
21 | AβC5-463 (TVVDR; cyclic pentapeptide) | – | – | – | – | Reads/Total TXXXR reads (%) [5]: 0.003%; Reads/Total pentapeptide reads (%) [5]: 0.001%; Reads/Total peptide reads (%) [6]: 0.001%; Number of reads [7]: 54
22 | AβC5-118 (TTFWR; cyclic) | 0.222% | 0.104% | 0.093% | 4,216 | –
23 | AβC5-291 (TTLDR; cyclic) | 0.011% | 0.005% | 0.005% | 213 | –
24 | TPSWFD [AβC6-65] | – | – | – | – | Reads/Total hexapeptide reads (%) (Table 4): 0.023%; Reads/Total peptide reads (%) (Table 4): 0.002%; Number of reads [4]: 105
25 | AβC5-12 (TTWAR; cyclic) | 3.466% | 1.624% | 1.455% | 65,929 | –
26 | AβC5-384 (TTYTR; head-to-tail cyclic) | 0.005% | 0.002% | 0.002% | 90 | –
27 | AβC5-18 (TTIAR; cyclic) | 1.953% | 0.915% | 0.820% | 37,150 | –
28 | AβC5-3 (TTVDR; cyclic) | 11.276% | 5.282% | 4.734% | 214,461 | –
29 | AβC5-158 (TTGAR; cyclic) | 0.062% | 0.029% | 0.026% | 1,172 | –
30 | AβC5-263 (THLAR; cyclic) | 0.015% | 0.007% | 0.006% | 284 | –
31 | AβC5-474 (TTWPR; cyclic pentapeptide) | – | – | – | – | Reads/Total TXXXR reads (%) [5]: 0.003%; Reads/Total pentapeptide reads (%) [5]: 0.001%; Reads/Total peptide reads (%) [6]: 0.001%; Number of reads [7]: 51
32 | TLSWFN [AβC6-59] | – | – | – | – | Reads/Total hexapeptide reads (%) (Table 4): 0.031%; Reads/Total peptide reads (%) (Table 4): 0.003%; Number of reads [4]: 141
33 | AβC5-53 (TTVWR; cyclic pentapeptide) | 0.982% | 0.460% | 0.412% | 18,669 | –
34 | TPARFD [AβC6-78] | – | – | – | – | Reads/Total hexapeptide reads (%) (Table 4): 0.012%; Reads/Total peptide reads (%) (Table 4): 0.001%; Number of reads [4]: 55
35 | AβC5-405 (TTSHR; head-to-tail cyclic) | – | – | – | – | Reads/Total TXXXR reads (%) [5]: 0.004%; Reads/Total pentapeptide reads (%) [5]: 0.002%; Reads/Total peptide reads (%) [6]: 0.002%; Number of reads [7]: 78
36 | AβC5-440 (TATGR; cyclic pentapeptide) | – | – | – | – | Reads/Total TXXXR reads (%) [5]: 0.003%; Reads/Total pentapeptide reads (%) [5]: 0.002%; Reads/Total peptide reads (%) [6]: 0.001%; Number of reads [7]: 61
37 | AβC5-146 (TTWSR; cyclic) | 0.085% | 0.040% | 0.036% | 1,612 | –
38 | AβC5-117 (TTRCR; cyclic) | 0.223% | 0.104% | 0.094% | 4,237 | –
39 | cyclo-TLWR (cyclic) [AβC4B-80] | – | – | – | – | Normalized read number (%) (Table 3, cyclo-TXXR tetrapeptides): 0.2568%
40 | AβC5-266 (TTLRR; cyclic) | 0.014% | 0.007% | 0.006% | 274 | –
